According to the nanobody polyreactivity screen of Harvey et al. (2022):

Assay: yeast display, Sf9 membrane polyspecificity reagent, FACS + sequencing; frameworks hold sequencing errors
Method in brief: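 Polyreactivity labels are assigned by the sorting gate from which each nanobody was recovered. The gates were low and high (top ~1%), set on anti-HA fluorescence for expression and streptavidin fluorescence for reagent binding. Before sorting, galactose-induced (36–48 hours) yeast display cells were stained for 1 hour at 4 °C with 10% biotinylated, detergent-solubilized Sf9 membrane reagent.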

With “QVQLVESGGGLVQAGGSLRLSCAASGSIYTYYAMGWYRQAPGKEMELVADIRWSGGSTYYADSVKGRFTISRDNAKNTVYLQMNSLKPEDTAVYYCNARYYSYCPIYNFDYWGQGTQVTVSS” the “polyreactivity (PSR sort gate)” value was “low polyreactivity”.

In the case of “QVQLVESGGGLVQAGGSLRLSSAASGITFDDYAMGWNRQAPGKERELVAAITWSGDSTYYADSVKGRFTISRDNAKNTVYLQMNSLKPEDTAVYYCAAVSYYYSGYIRGYWGQGTQVTVSS”, the “polyreactivity (PSR sort gate)” value is reported as “high polyreactivity”.

With “QVQLVESGGGLVQAGGSLRLSCAASGLTFGAYAMGWYRQAPGKEREFVAAITYSGGSTNYADSVKGRFTISRDNAKNTVYLQMNSLKPEDTAVYYCNAGYYSPWAFYPYDYWGQGTQVTVSS” the “polyreactivity (PSR sort gate)” value was “high polyreactivity”.

For “QVQLVESGGGLFQAGGSLRLSCAASGFIFRDNAMGWYRQAPGKERELVAAISWSSDSTYYADSVKGRFTISRDNEKNTVYLQMNSLNPEDSAVYYCAGKGQRGYWWGFDYWGQGTQVTVSS”, the “polyreactivity (PSR sort gate)” value was “low polyreactivity”.

With “QVQLVESGGGLVQAGGSLRLSCAASGFTFYDNAMGWYRQAPGKERELVAAINWRSGSTYYADSVKGRFTISRDNAKNTVYLQMNSLKPEDTAVYYCAAGLVFHYYAPKSYYLGYDYWGQGTQVTVSS” the “polyreactivity (PSR sort gate)” value was “low polyreactivity”.

In the case of “QVQLVESGGGLVQAGGSLRLSCAASGSTFHRYTMGWYRQAPGKEWELVAAISWSGGSTYYADSVKGRFTISRDNAKNTVYLQMNSLKPEDTAVYYCAAVKPAEALDYWGQGTQVTVSS”, the “polyreactivity (PSR sort gate)” value is reported as “high polyreactivity”.

With “LVQLQESGGGLVQAGGSLRLSCAASGTITPGGYKGWYRQAPGKERELVASINVGGSTNYADSVKGRFTISRDNAKKTVYLQMKSLKPEDNAVYYCAVWGRNRLQLSYWGQGTQVTVSS” the “polyreactivity (PSR sort gate)” value was “low polyreactivity”.

For “QVQLVESGGGLVQAGGSLRLSCAASGSIFWSNAMGWYRPATGKERELVAAISSGGSTYADSVKGRFTISRDNAKNTVYLQMNSLKPVDTAVYYCNADVLYGDYYRGGYWGQGTQVTVSS”, the “polyreactivity (PSR sort gate)” value was “low polyreactivity”.

With “QVQLVESGGGLVQAGGSLRLSCAASGSTFKYNAMGWSRQAPGKERELVASISRSGGSTYYADSVKGRFTISRDNAKNTVYLQMNSQKPEDTAVYYCNVRRFVHYEYWGQGTQVTVSS” the “polyreactivity (PSR sort gate)” value was “high polyreactivity”.

With “QDQLVESGGGLVQAGGSLRLSCSASGFTITHNAMGWYRQAPGKEREFVATISRSGGRTYYADSVKGRFTISRDNAKNTVFFQMNSLKPEDTPVYYCAARTSGYWYSYGSWGQGTQVTVSS” the “polyreactivity (PSR sort gate)” value was “high polyreactivity”.

With “QVQLVESGGGLGQAGGSLRLSCAASGITFSGNAMRWYRQAPGKEREYVAAITWRGENTYYADSVKGRFTISRDTAKNTVSLQMNSLKPVDTAVYYCAAISPLVGLTSYRGPDDSWGQGTQVTVSS” the “polyreactivity (PSR sort gate)” value was “low polyreactivity”.

In the case of “QVQLVESGGGLVQAGGSLRLSCAASGIIFSFYAMGWYRKAPGKERELVAAISQSGGSTYYADSVKGRFTISRDNAKNTVYLQMNSLKPEDTAVYYCAVAGWYGSEYWGQGTQVTVSS”, the “polyreactivity (PSR sort gate)” value is reported as “high polyreactivity”.

In the case of “QVQLVESGGGLVQAGGSLRLSCAASGSIFVWYDLGWSRQAPGKERELVATISLSGVSTYYADSVKGRFTISRDTAKNTVYLQMISLKPEDTAVYYCAADFVEQGVDDFWGQGSQVTVSS”, the “polyreactivity (PSR sort gate)” value is reported as “low polyreactivity”.

With “QVQLVESGGGVVQAGGSLRLSCAASGRIFLKYTMGWYRQAPGKARELVAAISRGGSTYYADSVKGRFTISRDNAKNTVYLQMNSLKPEDTAVYYCAATSYRRTGYNYWGQGTQVTVSS” the “polyreactivity (PSR sort gate)” value was “high polyreactivity”.

For “QVQLVESGGGLVQAGGSLRLSCASSGSIFYNNAMGWYRQAPGKERELVAAIRSTGTRTYYSDSVKGRFTISRDTAKNTVYLQMNSLKPEDTAVYYCAVGDYGLWSYDYWGQGTQVTVSA”, the “polyreactivity (PSR sort gate)” value was “low polyreactivity”.

For “QFQLVESGGGLVQAGGSLRLSCAASGRIFVQYAMGWYRQATGKQTEFVAAISYRGGSTYYADSVKGRFTISRDNSKITVYLPMNSLKPEDTAVYYCAIVFPYRGKVTLDYWVQGTQVTVSS”, the “polyreactivity (PSR sort gate)” value was “low polyreactivity”.

With “QVQLVESGGGLVQAGVSLRLSCAASGGIFADYAMGWYRQAPGKERELVAAISSGGNTNYADSVKGRFTISRDNAKNTVYLQMNSLKPEDTAVYYCNRDTSYYRYVYYEGNDYWGQGTQVTVSS” the “polyreactivity (PSR sort gate)” value was “low polyreactivity”.

For “QDQLVESGGGLVQAGGSLRLSCAASGSTFGFNAMGWDRQAPGKERELVAAITWSGGSTYYADSVKGRFTISRDNAKNTVYLQMNSLKPEDTAVYYCARETYGDYVHYDYWGQGTQVTLSS”, the “polyreactivity (PSR sort gate)” value was “low polyreactivity”.

In the case of “QVQLQESGGGLVQAGGSLRLSCAASGTIFWLWAMGWYCKAPGKERELVASISSGGTTYHADSVKGRFTISRDNAKNTVYLQMNSLKPEDTAVYYSAAFYVATAKLGYWGQGSQVTVSS”, the “polyreactivity (PSR sort gate)” value is reported as “low polyreactivity”.

For “QVQLVESGGGLVQAGGSLRLSCAASGPISRYNTMGWYRQAPGKERELVAAISYRGGSTYYADSVKGRFTISRDNAKNTVYLQMNSLKPEDTAVYYCNKVRSSVRSGGYGYWGQGTQVTVSS”, the “polyreactivity (PSR sort gate)” value was “high polyreactivity”.

In the case of “QVQLVESGGGLVQAGGSLRLSCAASGFTFYYNAMGWYRQAPGKERELVASISSNGTSTYYADSVKGRFTISRDNAMYTVYLQMNSLKPEDTAGYYCAADDVCVYWSSTHNWARGDYWGQGSQVTVSS”, the “polyreactivity (PSR sort gate)” value is reported as “low polyreactivity”.

With “QVQLVESGGGLVQAGGSLRLSCAASGRTFYYNDMGWYRQAPGKERELVAAISWSGVSTSYADSVKGRFTISRDNAKNTVYLQMNSLKPEDTAVYYCAADNDGWYFHITEYDYWGQGTQVTVSS” the “polyreactivity (PSR sort gate)” value was “low polyreactivity”.

With “QVPLVESGGGLVQAGRSLRLSCAASGITFRHNTMGWYRQAPGKERELVSTNYADSVKGRFTFSRDNAKNTVYLQMNSLKPEDTAVYYCNADGTFESDYWGQGTQVTVSS” the “polyreactivity (PSR sort gate)” value was “low polyreactivity”.

For “QVQLVESGGGLVQAGASLRLSCAASGSIFGVNAMGWYRQAPGKERELVAAISVSGGRTYYADSVKGRFTISRDNAKNTVYLLMNSLKPEDTAVYYCAATTYIWPYDYWGQGTQVTVSS”, the “polyreactivity (PSR sort gate)” value was “low polyreactivity”.

In the case of “QVQLVESGGGLVQAGGSLRLSCAASGSTLDDYVMGWYRQAPGKERELVAAISSSGSGTYYADSVKGRFTISRDNAKNTVYLQMNSLKPEDTAVYYCAAAYSYSGYGYYTYDYWGQGTQVTVSS”, the “polyreactivity (PSR sort gate)” value is reported as “low polyreactivity”.

In the case of “QVQLVESGGGLVQAGASLRLSCAASGFIFGGNAMGWYRQAPGKERELVAAISTTGGRTYYADSVKGRFTISRDNAKNTVYLQMNSRKPEDTAVYYCNAGYDSYCRYYWYWYSFNYWGQGTQVNVSS”, the “polyreactivity (PSR sort gate)” value is reported as “high polyreactivity”.

For “QVQLVESGRGLVQAGGSLRLSCAASGRTFRAYAMGWYRQAPGKERELVAAISSRGGSTYYADSVKGRFTISRDNAKNTVYFQMNSLKPEDTAVYYCNVDRYVRGLITFDYWGQGTQVTVSS”, the “polyreactivity (PSR sort gate)” value was “high polyreactivity”.

In the case of “QVQLVESGGGLVQAGGSLRLSCAASGRTIYYYAMGLYRQAPGKERELVAAISSSGSTTYYADSVKGRFTISRDNAKNTVYLQMNSLKPEDTAVYYCAASYVYRVDDDYWGLGTQVTVSS”, the “polyreactivity (PSR sort gate)” value is reported as “low polyreactivity”.

With “QVQLVESGGGLVQAGGSLRLSCAASGSTFGGYAKGWYRQAPGKERELVAAMSQSGTRTYYADSVKGRFTISRDKAKNTVYLQMNSLKPEDTAVYYCAAEKRFRKYDNWGQGTQVTVSS” the “polyreactivity (PSR sort gate)” value was “high polyreactivity”.

For “QVQLVESGGGLVQAGGSLRLSCAASGSTFAPYAMGWYRQAPGKETELVARITGSGGGTTYADSVKGRFTISRDNAKNTVYLQMNSLKPEDTAVYYCAAPRASQYGDDYWGQGTQVTVSS”, the “polyreactivity (PSR sort gate)” value was “high polyreactivity”.

With “QVQLVESGGGLVQAGGSLRLSCDASGSTFVTYAMGWYRPAPGKERELVAAINTGGRTKYADSVKGRFTISRDNATNTVYLQMNSLKPEDTAVYYCAARLSTTGVAYGYWGQGTQVTVSS” the “polyreactivity (PSR sort gate)” value was “high polyreactivity”.

With “QVQLVESGGGLVQAGGSLRLSCAASGRTFGYNAMGWYRQAPGKERELVAAINWSGASTYYADSVKGRFTISRDNAKNTVYLQMNSLKPEDTAVYYCAADYSYIYGFDYWGQGTQVTLSS” the “polyreactivity (PSR sort gate)” value was “low polyreactivity”.

With “QVQLVESGGGLVQAGGSLRLSCAASGFTFGRYTMGWYRQAPGKERELVAAISWSGGSTYYADSVKGRFTISRDNAKNTVYLQMNSLKPEDTAVYYCAKVFRGGRGDYWGQGTQVTVSS” the “polyreactivity (PSR sort gate)” value was “high polyreactivity”.

With “QVQLVESGGGLVQAGGSLRLSCAASGSIFAVYAMGWSRQAPGKERELVAAITTSGGSTYYADSVKGRFTISRDNAKNTVYLQMNSLKPEDTAVYYCAAYRGTLLTAYDYWGQGTQVTVSS” the “polyreactivity (PSR sort gate)” value was “low polyreactivity”.

In the case of “QVQLVESGGGLVQAGGSLRLSCAASGSTFIWYDMGWYRQAPGKERELVATIDGNDGSTYYADSVKGRFTISRDNAKNTVYLQMNSLKPEDTAVYYCAKRSTGRLQSYNYWGQGTQVTVSS”, the “polyreactivity (PSR sort gate)” value is reported as “low polyreactivity”.

For “QVQLVESGGGLVQAGGSLRLSCAASGSIFRGYAMGWYRQAPGKERELVAVITSGGSTDYADSVKGRFTISRDNAKNTVYLQMNSLKPEDTAVYYCAALPGGYYDRGEYDYWGQGTQVTVSS”, the “polyreactivity (PSR sort gate)” value was “low polyreactivity”.

For “QVQLVETGGGLVQAGGSLRLSCAASGPTFYANAKGWYRQAPGKERELVAVISWGSGSTYYADSVKGRFTISRDNAKNTVYLQMNSLKPEDTAVYYCAKSFYYEGTGDYWGQGTQVTVSS”, the “polyreactivity (PSR sort gate)” value was “low polyreactivity”.

In the case of “QVQLVESGGGLVQAGGSLRLSCAASGNTFPYYAMGWYRQAPGKEREYVATIDRGDGSTYYADSVKGRFTISRDNAKNTVYLQMNSVKPEDTAVYYCAKLRGAFIVPGRGYPIYYYWGQGTQVTVSS”, the “polyreactivity (PSR sort gate)” value is reported as “high polyreactivity”.

In the case of “QVQLVESGGGLVQAGGSLRLSCAASGSTFYVNAMGSYRKAPGKEMEFVAAITWNSGSTYYADSVKGRFTISRDNANYTVYLQMNSLKPEDTAVYYCAAVLSVRDYGYDYWGQGTQVTVSS”, the “polyreactivity (PSR sort gate)” value is reported as “low polyreactivity”.

In the case of “QDQLVESGGGFVQAGGSLRLSCAASGITFPLYALGRYRQPPGKERELVAAISRNGGRTYYADSVKVRFTMSRDNAKNTVYLQMNSMKPEDTAVYYCAKVSRGSVSSPPDDYWGQGTQVTVSS”, the “polyreactivity (PSR sort gate)” value is reported as “high polyreactivity”.

With “QVQLVESGGALVQAGASLRLSCAASGFTFWDYAMGWYRQAPGKERELVAAISDNDGSTDYADSVKGRFTISRDIAKNSVYLQMNSLKPEDTAVYSCNAEIELPSKVGDYWGQGTLVTVSS” the “polyreactivity (PSR sort gate)” value was “low polyreactivity”.

With “QVQLVESGGGLVQAGGSLRLSCAASGSTFEVNAMGWYRQAPGKERELVAAISSSAGDTYYADSVKGRFTISRDNAKNTVYLQMNSLKPEDTAVYYCAAKGFPRSGYPYQAQHMYYWGQGTQVTVSS” the “polyreactivity (PSR sort gate)” value was “low polyreactivity”.

With “QVQLVESGGGLVQAGGSLRLSCAASGYIFGYNTMGWYRQAPGKERELVAAISKSGGRTYYADSVKGRFTISRDNAKNTVYLQMNSLKPEDTAVYYCAADGWSGKLRYTRYDYWGQGTQVTVSS” the “polyreactivity (PSR sort gate)” value was “high polyreactivity”.
